Data from the supplement of paper PMC10567573.
± gives the standard deviation.

Assay: protein stability index of a GFP-peptide fusion (GPS, HEK-293T) (PSI 1-6); higher = more stable
[1] = treatment: DMSO, c terminus: a fixed tail appended
[2] = treatment: MLN4924 1 uM, 8 h, c terminus: a fixed tail appended
[3] = treatment: DMSO, c terminus: native
[4] = treatment: MLN4924 1 uM, 8 h, c terminus: native
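Also: 24-mer peptide tiles fused after GFP, lentivirally expressed, FACS-sorted into six equal bins by GFP/DsRed ratio, decoded by Illumina sequencing, PSI is the read-weighted mean bin number.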

Sequence	protein stability index [1]	protein stability index [2]	protein stability index [3]	protein stability index [4]
VANRHGHTCLMISCYKGHREIARY [FEM1A]	2.54 ± 0.5	2.41 ± 0.67		
PLPESLASLHPSVSPGSPPPPLPN [PLAGL1]	5.01 ± 0.27	4.95 ± 0.16		
SSVQSYPGSASLAQSRLEDPGQDL [DLX1]	4.89 ± 0.28	5.09 ± 0.19		
CEYNFVSPSKSFWTRITCAEEGWS [CFHR2]	2.31 ± 0.35	2.05 ± 0.089		
PAGKTPVPAGEEEGELGEYRQKLL [VPS39]	5.29 ± 0.32	5.45 ± 0.2		
CMHEVHTFVSTCQAIDATVAAELL [HES6]	2.8 ± 0.85	2.34 ± 0.3		
ARNGNAEEVRQLLETMARNEVIAD [OSBPL1A]	4.11 ± 0.061	4.07 ± 0.32		
LWDRAYVRLKPALQRLDFSVRGYM [RETREG3]	2.5 ± 0.43	2.69 ± 0.65		
VSVRVQPRGRAHLLPNPYQQDFLG [C22orf15]	2.2 ± 0.18	2.13 ± 0.35		
QSLNDRLASYLDRVRSLETENRRL [KRT18]	3.65 ± 0.044	3.67 ± 0.23		
QYQLLRCNVDLLKIIQLGLTFMNE [CNOT7]	2.73 ± 1.8	2.86 ± 0.42		
ENQEKTEDQYEENSHLTSVPHWIN [ETS2]	4.97 ± 0.21	4.95 ± 0.22		
VLLAVLPVLLLQITVGLVFLCLQY [MOG]	3.18 ± 0.24	3.13 ± 0.32		
KYRRHFLRFCHNNKKAKRYLLHGL [EIF5]	2.21 ± 0.2	2.27 ± 0.19		
ENSVTHHEVKCQGKPLAGIYRKRE [KMT5A]	4.34 ± 0.13	4.42 ± 0.34		
YRFASAGDDGIVVVWNAQTGEKLL [WDR41]	2.43 ± 0.17	2.75 ± 0.1		
SYSLSRKKIVHYTCFDQRKRANAA [CDC14A]	2.88 ± 0.28	3.05 ± 0.12		
RPSEAQSVILRRYFLELTQSFIIP [DENND6A]	2.91 ± 0.44	2.67 ± 0.45		
ELLREGRASATTTITTAAATSVTV [ZBTB22]	3.42 ± 0.21	3.48 ± 0.28		
VYPRPPEPREFSSRNFGVRNQGNF [ZC2HC1C]	3.24 ± 0.15	3.24 ± 0.29		
KQASNLETAIADAEQRGDNALKDA [KRT71]	5.66 ± 0.18	5.62 ± 0.22		
ESLVPFIVNDNITNNFFRFLCMT [DYNC2LI1]			3.91 ± 0.45	2.63 ± 0.67
YVRDRADLNKDKPVIPAAALAGYT [ETS1]	2.44 ± 0.6	3.35 ± 0.78		

Sequence	protein stability index [1]	protein stability index [2]	protein stability index [3]	protein stability index [4]
QFRVVRCWKMLSPGFDSSVYSDLC [ADAMTSL2]	2.5 ± 1	2.32 ± 0.45		
QSLVSILRTTVHHAFPVVTENRGN [CLCN6]	2.69 ± 0.57	2.46 ± 0.059		
KNYFQHREFSFTLKDDIYIRYQSF [PRIM1]	2.22 ± 0.9	2.26 ± 0.87		
TLNILLYEAQDGRGPDNALLEATG [KCTD10]	2.92 ± 0.21	3.29 ± 0.31		
DSHLGGNARGMGIRSPRPASVATW [CTBP1-DT]	3.56 ± 0.24	3.63 ± 0.2		
EINSHSLFSKWFSESGKLVTKMFQ [TRIP13]	2.58 ± 0.21	2.48 ± 0.42		
ASVDYIRKLQKEQQRSKDLESRQR [TFE3]	4.06 ± 0.24	4.18 ± 0.13		
LYLIMEFLPGGDMMTLLMKKDTLT [STK38L]	3.03 ± 0.13	2.94 ± 0.81		
PGPSWVRGSGPSVLSRLQDAAVVR [ALKBH7]	3.58 ± 0.37	3.78 ± 0.23		
WMEILILGVVYRSLSFEDELVYAD [ESRRG]	3.77 ± 0.27	2.68 ± 0.25		
PPPLDQYVKFDAVSGDYYPIIYFN [CLPTM1]	2.32 ± 0.14	2.37 ± 0.44		
TVRFCILGKESFYDTFHTVADMMY [HACD3]	2.8 ± 0.69	2.85 ± 0.78		
PHGTLRVCTISSTGPLQPQPKKPE [PKD2L1]	4.42 ± 0.27	4.5 ± 0.3		
RSQQQEPLLCPSYQSYFKTIEELQ [KRT33B]	3.21 ± 0.37	3.43 ± 0.18		
DSVDAQNICHVWHMNVEALPEWIS [RNF180]	2.44 ± 0.34	2.62 ± 0.38		
DIDKKHLVLLRDGRTLIGFLRSID [LSM1]	2.3 ± 0.31	2.25 ± 0.18		
QLYMEQFTKANFWYQPSFHGVDLS [CARM1]	2.42 ± 0.71	2.48 ± 0.31		
PPEQGKIFIARRSLLDELLEVDHI [SOAT1]	2.76 ± 0.2	2.93 ± 0.32		
DMSYSIRHSISMPAMRNSPTFKSF [TPD52L1]	2.94 ± 0.24	2.95 ± 0.32		
ELGQAVEVIYPQHSKLTDREKTNI [DENND6A]	3.69 ± 0.35	4.28 ± 0.21		
QVHAWQLYYSKKLLDSWFTSTQEK [JAGN1]	2.23 ± 0.29	2.29 ± 0.29		
VVLGSGGVGKSALTVQFVQGIFVE [RAP1B]	2.99 ± 0.05	2.96 ± 0.44		
FWQTQYNNMNAVNLFFAWIKIFKY [PKD2L1]	2.38 ± 0.38	2.19 ± 0.52		

Sequence	protein stability index [1]	protein stability index [2]	protein stability index [3]	protein stability index [4]
PSLGRVLPDPREACGSSSYVASIV [RBMY1A1]	2.63 ± 0.36	2.94 ± 0.21		
LYYSNFVLALEERFGVRPKVTGYL [MFSD9]	2.76 ± 0.86	2.91 ± 0.79		
DVTGSVKSERRNLLEDDSDEEEDF [VAMP4]	5.57 ± 0.14	5.66 ± 0.25		
FPPFFDDNPFGIYQKILAGKIDFP [PRKX]	2.28 ± 0.067	2.27 ± 0.62		
GKSVSSSSSVETGPSVSEPPGLPR [SPATS1]	5.08 ± 0.18	5.11 ± 0.067		
VGPAEPTLVNFHLKRSIPQVSPVR [CPN1]	3.44 ± 0.17	3.4 ± 0.32		
ERKKNLTLALEALVQLRGRLTSQD [ALG2]	2.79 ± 0.16	2.88 ± 0.48		
EFLPQGPVAMRVAKLAINQGMEVD [AUH]		3.82 ± 0.18		
KIRDWYQRQAPGPARDYSQYYRTI [KRT17]	2.19 ± 0.37	2.42 ± 0.31		
ESDYTYSSSYEQFNGELPNGRHKI [SRPK2]	4.04 ± 0.41	3.97 ± 0.49		
IQSKDGKSPLHMTAVHGRFTRSQT [ANKRD44]	3.84 ± 0.32	3.9 ± 0.36		
SDGILRGNGTGYLPGRGRVLSSWS [RHOBTB2]	3.42 ± 0.2	3.26 ± 0.3		
LGKPDQKDLNENLAATQGLAHMIA [DLC1]	3.79 ± 0.12	3.84 ± 0.23		
LEQEEERLSKEWEDSKRWSKMDQL [CHGA]	4.81 ± 0.24	4.73 ± 0.17		
EIDLDSMRNLKASLENSLREVEAR [KRT18]	4.23 ± 0.28	4.23 ± 0.48		
FEMKKGQCKDALEIYKRFLTRMTR [SNAP91]	2.46 ± 0.7	2.56 ± 0.43		
AEHNLVLFRKDVDDATLSRLELER [PRPH]	4.45 ± 0.19	4.51 ± 0.16		
QRQAIKGAFYRRAQRLRPQDEPRQ [KCNG1]	3.87 ± 0.24	4.16 ± 0.22		
ILHIMVKVVKGHRPELPPVCRARP [RIPK4]	3.35 ± 0.92	2.4 ± 0.36		
TARPFGAPPPADSAPQQNGQPLRP [PDLIM7]	4.84 ± 0.52	4.92 ± 0.058		
TSQFLSLQCLQALYVDSLFFLRGR [PRAME]	2.49 ± 0.67	2.96 ± 0.82		
SRFSSSTEQSSASRLMRRHKRRRR [DVL3]	5.17 ± 0.084	5.257 ± 0.022		
APWWFWLSLTGVSLAGALGVKFVG [POMT2]	2.48 ± 0.23	2.27 ± 0.15		

Sequence	protein stability index [1]	protein stability index [2]	protein stability index [3]	protein stability index [4]
QEYQLPYQRVLPLPIFTPAKMGAT [TCAP]	3.01 ± 0.35	3.09 ± 0.18		
SPFSGSLHAPPAFYSTSSGLANGL [VENTX]	2.89 ± 0.048	2.96 ± 0.17		
PILKRLERPQDRDTPVQNKRRRSV [CDC25B]	5.03 ± 0.49	5.11 ± 0.16		
RTHGDMHSLVRSRHRIPEPEAAVL [TRIB3]	3.8 ± 0.11	3.91 ± 0.086		
SNMKSRYTTEFHELEKIGSGEFGS [WEE1]	3.9 ± 0.31	4.04 ± 0.19		
DAIRGKVGYTRGLHVWQITWAMRQ [SPSB1]	2.38 ± 0.54	2.36 ± 0.42		
ETSVVAQFGIKDVFDNAIRAALIS [RHOBTB2]	2.28 ± 0.19	2.38 ± 0.38		
TSAAYRYYIDDVFHALVREIRRKE [RIT1]	2.16 ± 0.36	2.35 ± 0.26		
ITALLNVSRRTSEACMTHLHYKWI [DUSP5]	2.75 ± 0.53	2.54 ± 0.32		
LKDEEAKVLQLTVRCEALTGELET [CCDC89]	3.86 ± 0.15	3.71 ± 0.25		
NRLASLQQENKVLKIELETYKLKC [CCDC6]	2.89 ± 0.28	3.23 ± 0.21		
CMVGLLLIALLTWGYIRYSGQYRE [ATL3]	2.95 ± 0.25	3.04 ± 0.36		
GPVPGTPGLPGSTGNPKSEEPEVP [SPNS1]	5.55 ± 0.2	5.3 ± 0.34		
NFVYNSPRGYFHTFAGDTCQVALN [WASL]	2.24 ± 0.44	2.27 ± 0.64		
RSWFPSAPGSASSSKVSGVLKKLA [YJU2B]	2.61 ± 0.27	2.5 ± 0.38		
SLVAILLVFLITAILVKVQLDALP [SLC29A1]	2.35 ± 0.6	2.54 ± 0.58		
YLESETETTEAIDDEGWLHSGDLG [ACSBG2]	5.25 ± 0.14	5.497 ± 0.035		
CSEGFLINEDLKTCSRVDYCLLSD [MATN2]	2.99 ± 0.44	3.28 ± 0.14		
HSVLQGFIPLFQKFRLTGFRKTD [TMEM40]			2.69 ± 0.62	2.69 ± 0.43
DHYAAIKKAWDDLKKYLEPRCPRM [FBXO3]	2.55 ± 0.22	2.69 ± 0.064		
